Source: patent US20150158912A1

Assays:
[1] = target: wild type mouse IL-17RB-SEFIR (WT-RB-SEFIR) (mouse) (UniProt Q9JIP3); test: SPR; printed as Ka
[2] = target: crystallized mutant mouse IL-17RB-SEFIR (RB-SEFIR-M; K364A, K367A, K368A and K369A quadruple mutant, residues 325-486) (mouse) (UniProt Q9JIP3); test: SPR; printed as Ka
crystallized mutant mouse IL-17RB-SEFIR (RB-SEFIR-M; K364A, K367A, K368A and K369A quadruple mutant, residues 325-486) (mouse), sequence (Q9JIP3 325-486 K364A/K367A/K368A/K369A): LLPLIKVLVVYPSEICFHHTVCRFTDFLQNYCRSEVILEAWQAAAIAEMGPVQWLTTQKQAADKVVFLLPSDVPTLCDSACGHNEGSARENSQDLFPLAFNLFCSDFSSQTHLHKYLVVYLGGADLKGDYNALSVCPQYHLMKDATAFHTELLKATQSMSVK

recombinant mouse Act1 SEFIR domain (mAct1-SEFIR, residues 391 to 537), sequence (Q8N7N6 391-537): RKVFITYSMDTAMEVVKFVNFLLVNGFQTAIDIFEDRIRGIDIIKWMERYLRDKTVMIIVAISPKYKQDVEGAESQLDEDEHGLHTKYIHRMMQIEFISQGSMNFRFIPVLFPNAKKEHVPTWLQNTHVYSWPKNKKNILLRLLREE
wild type mouse IL-17RB-SEFIR (WT-RB-SEFIR) (mouse), sequence (Q9JIP3 314-486): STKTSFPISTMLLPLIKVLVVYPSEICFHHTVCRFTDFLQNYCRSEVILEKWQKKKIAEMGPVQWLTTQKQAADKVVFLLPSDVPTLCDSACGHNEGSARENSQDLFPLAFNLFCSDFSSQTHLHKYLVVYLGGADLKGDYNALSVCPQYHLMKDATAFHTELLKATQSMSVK

Kd [1]: 1400 nM
Kd [2]: 1500 nM
Substance: recombinant mouse Act1 SEFIR domain (mAct1-SEFIR, residues 391 to 537) (from UniProt Q8N7N6 391-537)
